B1: HDV Ribozyme (parent)
chain: GGCCGGCAUGGUCCCAGCCUCCUCGCUGGCGCCGGCUGGGCAACAUUCCGAGGGGACCGUCCCCUCGGUAAUGGCGAAUGGGACCCA

In this data set the parent is B1. Briefly: self-cleavage, relative activity (ratio to wild type); higher = more cleavage; co-transcriptional.
In the case of C44G A77C, the self-cleavage turned out to be 0.297.

Take C44G A77G: the self-cleavage turned out to be 0.665.

For C44G U46C, the self-cleavage was determined as 0.748.

Turning to C44G U46G, the self-cleavage was 0.609.

Consider A45U C86U, for which the self-cleavage was 0.95.

In the case of A45U C86A, the self-cleavage is 0.77.

In the case of A45U C86G, the self-cleavage is 0.795.

With A45C U65C, the self-cleavage amounted to 0.646.

Take A45C U65A: the self-cleavage was found to be 0.87.

With C44G C62G, the self-cleavage stood at 0.485.

With C44G C62U, the self-cleavage stood at 0.758.

As to A45C A56U, the self-cleavage stood at 0.629.

In the case of A45C G68C, the self-cleavage is 0.404.

In the case of A45C G68A, the self-cleavage came out at 0.686.

In the case of A45C C85A, the self-cleavage is 0.437.

Take A45C C85U: the self-cleavage is 0.437.

As for A45C C84U, the self-cleavage turned out to be 0.499.

As to A45C C84G, the self-cleavage is 0.297.

Consider A45C C84A, for which the self-cleavage turned out to be 0.655.

For the variant A45G U60C, the self-cleavage worked out at 0.831.

Regarding A45C U69C, the self-cleavage was 0.623.

For A45C U69G, the self-cleavage turned out to be 0.974.

As for C44G G80C, the self-cleavage turned out to be 0.0405.

With C44G G54U, the self-cleavage amounted to 0.609.

Take A45U G67U: the self-cleavage came to 0.801.

Take C44G A78G: the self-cleavage stood at 0.246.

As for C44G A78C, the self-cleavage came to 0.193.

With A45U C48U, the self-cleavage came out at 0.79.

Consider A45U C48A, for which the self-cleavage is 0.7.

C44G U47A: the self-cleavage amounted to 0.653.

For C44G U47C, the self-cleavage worked out at 0.554.

As to C44G U47G, the self-cleavage was found to be 0.475.

With C44G C84G, the self-cleavage was 0.375.

On to C44G C84A, for which the self-cleavage was 0.394.

As to C44G C84U, the self-cleavage stood at 0.53.

Turning to C44G U65A, the self-cleavage turned out to be 0.443.

With C44U C49G, the self-cleavage amounted to 0.935.

Consider C44U C49A, for which the self-cleavage was found to be 0.892.

Regarding C44U C49U, the self-cleavage was determined as 0.96.

On to A45G A83U, for which the self-cleavage was determined as 0.485.

On to A45U G53U, for which the self-cleavage came to 0.997.

For C44U A78U, the self-cleavage is 0.148.

As for A45C A71U, the self-cleavage came to 1.09.

As to A45C A71G, the self-cleavage is 1.11.

Regarding A45C C66U, the self-cleavage stood at 0.8.

As to A45C C66A, the self-cleavage is 0.684.

As for C44G C49A, the self-cleavage is 0.665.

C44G C49U: the self-cleavage is 0.617.

For the variant C44A G80A, the self-cleavage is 0.169.

For C44A G80U, the self-cleavage came to 0.118.

Turning to C44A G80C, the self-cleavage came to 0.109.

For the variant C44A G74A, the self-cleavage was determined as 0.381.

Take C44G G59C: the self-cleavage was 0.95.

C44G G59U: the self-cleavage is 0.81.

As to C44U C84G, the self-cleavage came out at 0.404.

Consider A45U C58U, for which the self-cleavage turned out to be 0.849.

A45U C58G: the self-cleavage came out at 0.712.

As to C44U G50C, the self-cleavage was 0.437.

C44U G50A: the self-cleavage came out at 0.855.

As to C44U G50U, the self-cleavage was 0.772.

In the case of A45G A78C, the self-cleavage stood at 0.237.

As to A45G A78G, the self-cleavage came to 0.617.

As to C44U A83U, the self-cleavage was found to be 0.208.

For C44U A83G, the self-cleavage stood at 0.48.

Regarding C44U G74C, the self-cleavage was found to be 0.233.

On to C44U G74A, for which the self-cleavage was 0.427.

For the variant C44U G74U, the self-cleavage was found to be 0.67.

As to C44U A51U, the self-cleavage was determined as 0.789.

For C44U A51G, the self-cleavage came to 1.04.

Consider C44U A51C, for which the self-cleavage was determined as 0.931.

For A45C A87U, the self-cleavage is 0.531.

Take C44U C63A: the self-cleavage was 0.819.

For C44U C63G, the self-cleavage was 0.594.

On to A45G C84G, for which the self-cleavage came to 0.623.

For A45G C84A, the self-cleavage was determined as 0.587.

For the variant A45G C84U, the self-cleavage came to 0.658.

As for C44A G82U, the self-cleavage stood at 0.0791.

With A45C A77C, the self-cleavage came to 0.277.

Take A45G C57U: the self-cleavage was determined as 1.11.

For the variant A45U G52C, the self-cleavage came out at 0.743.

Turning to A45U G52U, the self-cleavage came to 0.674.

With A45U G52A, the self-cleavage amounted to 0.798.

C44A G73U: the self-cleavage stood at 0.397.

On to C44A G73A, for which the self-cleavage is 0.577.

As to C44A G73C, the self-cleavage is 0.696.

Regarding C44U U72G, the self-cleavage was 0.665.

Consider A45G G82A, for which the self-cleavage was found to be 0.415.

Take A45G G82C: the self-cleavage was 0.391.

For A45G G74U, the self-cleavage was determined as 0.543.

As to C44U G59C, the self-cleavage came to 0.997.

With A45G C48G, the self-cleavage was 1.23.

On to A45G C48U, for which the self-cleavage was 0.978.

On to A45U A51C, for which the self-cleavage stood at 0.796.

A45U A51G: the self-cleavage worked out at 0.965.

Turning to C44G G52C, the self-cleavage was found to be 0.724.

As to C44G A51U, the self-cleavage came to 0.591.

Turning to C44G A51C, the self-cleavage amounted to 0.447.

With C44U C61G, the self-cleavage was 0.786.

C44G U69G: the self-cleavage stood at 0.443.

As to A45G C75U, the self-cleavage was 0.208.

On to A45G C75A, for which the self-cleavage was 0.249.

As to A45G C75G, the self-cleavage is 0.0536.

In the case of A45G G67C, the self-cleavage was 0.54.

In the case of C44G G74A, the self-cleavage was 0.523.

As for C44G G74U, the self-cleavage amounted to 0.318.

With C44G C85G, the self-cleavage is 0.831.

For the variant C44G C85A, the self-cleavage stood at 0.525.

For the variant C44G C85U, the self-cleavage amounted to 0.892.

As for C44G A56G, the self-cleavage was determined as 0.886.

In the case of C44G A56C, the self-cleavage came to 0.745.

Consider C44U G73U, for which the self-cleavage is 0.172.

As to C44U G73C, the self-cleavage was 0.47.

With A45U A71C, the self-cleavage is 0.653.

On to A45U A71U, for which the self-cleavage came to 1.01.

Regarding C44G G81U, the self-cleavage turned out to be 0.271.

Take C44G G81A: the self-cleavage was found to be 0.277.

Regarding C44U C58A, the self-cleavage was determined as 1.07.

C44U G54A: the self-cleavage is 0.872.

Take A45C C58G: the self-cleavage is 0.724.

Consider A45U A78G, for which the self-cleavage worked out at 0.571.

In the case of A45G A70U, the self-cleavage was 1.09.

As to A45G A70C, the self-cleavage came out at 0.88.

As to A45G A70G, the self-cleavage was found to be 0.997.

On to A45G G59C, for which the self-cleavage is 1.02.

Regarding A45G G59U, the self-cleavage amounted to 0.931.

For C44U G80C, the self-cleavage is 0.242.

Regarding A45U A83C, the self-cleavage came out at 0.0875.

On to A45U A83U, for which the self-cleavage came to 0.128.

C44G A70C: the self-cleavage came out at 0.831.

As to C44G A70G, the self-cleavage turned out to be 0.525.

On to A45G C58G, for which the self-cleavage was 1.14.

In the case of A45G C58U, the self-cleavage turned out to be 0.906.

A45U G59A: the self-cleavage stood at 1.

On to A45U G59U, for which the self-cleavage was 0.903.

Take A45U G59C: the self-cleavage amounted to 0.969.

In the case of C44G U79C, the self-cleavage was found to be 0.297.

As for C44U U69G, the self-cleavage is 0.957.

Regarding C44U A87U, the self-cleavage stood at 0.718.

As for A45C G76C, the self-cleavage was 0.68.

Turning to A45C G76A, the self-cleavage came out at 0.869.

For the variant A45G G53C, the self-cleavage stood at 1.05.

With A45G G53U, the self-cleavage stood at 0.884.

Take C44U A45C: the self-cleavage was 0.739.

In the case of C44G G73A, the self-cleavage stood at 0.522.

A45G U47A: the self-cleavage was found to be 1.13.

With C44G G76U, the self-cleavage was 1.03.

With C44G G76A, the self-cleavage is 0.8.

In the case of C44G G76C, the self-cleavage amounted to 0.511.

Turning to A45C U60A, the self-cleavage stood at 0.883.

For the variant A45C U60C, the self-cleavage is 0.573.

With A45C U60G, the self-cleavage amounted to 0.63.

In the case of A45G G55U, the self-cleavage stood at 0.888.

With A45G G55C, the self-cleavage is 1.04.

As to A45G G55A, the self-cleavage stood at 1.08.

In the case of C44G, the self-cleavage stood at 0.753.

For C44U, the self-cleavage turned out to be 0.803.

Take A45C G55C: the self-cleavage amounted to 0.48.

As to C44A U60C, the self-cleavage worked out at 0.831.

In the case of C44U C86U, the self-cleavage was found to be 0.886.

With C44U C86A, the self-cleavage turned out to be 0.716.

Regarding A45U C61U, the self-cleavage is 0.876.

Regarding C44G A71C, the self-cleavage came out at 0.76.

For the variant C44U G52C, the self-cleavage turned out to be 0.806.

With C44U G52A, the self-cleavage was found to be 0.831.

Regarding A45G A56U, the self-cleavage was found to be 1.12.

Take C44U A77U: the self-cleavage was 0.111.

Consider C44A U46C, for which the self-cleavage came out at 0.767.
